Read-outs that look alike come from different tables or passages of the source.

The record followed here is patent US20230203202A1 (DRAGONFLY THERAPEUTICS, published 2023).

The target of experiment [1] is T1, human 5T4 on the cell surface (human, UniProt Q13641 32-420).
T1 construct: whole, on cells; also called h5T4; TPBG
T1 sequence (looked up): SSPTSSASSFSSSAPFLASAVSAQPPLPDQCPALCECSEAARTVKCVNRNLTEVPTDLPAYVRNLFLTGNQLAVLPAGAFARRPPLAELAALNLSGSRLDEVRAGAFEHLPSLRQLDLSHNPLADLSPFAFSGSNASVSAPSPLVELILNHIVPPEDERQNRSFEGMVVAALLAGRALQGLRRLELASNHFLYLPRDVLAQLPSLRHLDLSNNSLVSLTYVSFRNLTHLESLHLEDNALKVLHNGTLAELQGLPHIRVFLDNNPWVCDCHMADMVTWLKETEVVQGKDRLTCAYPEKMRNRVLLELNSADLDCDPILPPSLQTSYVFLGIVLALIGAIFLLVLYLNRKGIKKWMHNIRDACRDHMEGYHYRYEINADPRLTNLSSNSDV
Kind of experiment: cell binding assay on 5T4-expressing tumor cells (cell line not given).

Experiment [2] deals with T1, human 5T4 on the cell surface. The experiment is described as above. This is another data set of the same source.

B1: AB1878-TriNKET® (bispecific antibody, human IgG1, kappa)
chain: DIQLTQSPSSLSASVGDRVTITCRASQSVTTSNYNYMHWFQQKPGKAPKLLIKFASNLESGVPSRFSGSGSGTDFTLTISSLQPEDFATYYCQHSWEIPWTFGCGTKVEIKGGGGSGGGGSGGGGSGGGGSEVQLVESGGGLVKPGGSLRLSCAASRFTFSDFGMHWVRQAPGKCLEWVSYISSGSSTIYYADTVKGRFTISRDNAKNSLYLQMNSLRAEDTAVYYCASSQSYYRGTLDYWGQGTTVTVSSGSDKTHTCPPCPAPELLGGPSVFLFPPKPKDTLMISRTPEVTCVVVDVSHEDPEVKFNWYVDGVEVHNAKTKPREEQYNSTYRVVSVLTVLHQDWLNGKEYKCKVSNKALPAPIEKTISKAKGQPREPRVYTLPPCRDELTKNQVSLTCLVKGFYPSDIAVEWESNGQPENNYKTTPPVLVSDGSFTLYSKLTVDKSRWQQGNVFSCSVMHEALHNHYTQKSLSLSPG
heavy: EVQLVESGGGLVKPGGSLRLSCAASGFTFSSYSMNWVRQAPGKGLEWVSSISSSSSYIYYADSVKGRFTISRDNAKNSLYLQMNSLRAEDTAVYYCARGAPIGAAAGWFDPWGQGTLVTVSSASTKGPSVFPLAPSSKSTSGGTAALGCLVKDYFPEPVTVSWNSGALTSGVHTFPAVLQSSGLYSLSSVVTVPSSSLGTQTYICNVNHKPSNTKVDKKVEPKSCDKTHTCPPCPAPELLGGPSVFLFPPKPKDTLMISRTPEVTCVVVDVSHEDPEVKFNWYVDGVEVHNAKTKPREEQYNSTYRVVSVLTVLHQDWLNGKEYKCKVSNKALPAPIEKTISKAKGQPREPQVCTLPPSRDELTENQVSLTCLVKGFYPSDIAVEWESNGQPENNYKTTPPVLDSDGSFFLYSWLTVDKSRWQQGNVFSCSVMHEALHNHYTQKSLSLSPG
light: DIQMTQSPSSVSASVGDRVTITCRASQGISSWLAWYQQKPGKAPKLLIYAASSLQSGVPSRFSGSGSGTDFTLTISSLQPEDFATYYCQQGVSFPRTFGGGTKVEIKRTVAAPSVFIFPPSDEQLKSGTASVVCLLNNFYPREAKVQWKVDNALQSGNSQESVTEQDSKDSTYSLSSTLTLSKADYEKHKVYACEVTHQGLSSPVTKSFNRGEC
notes: F3′ format; also called AB1878-VL-VH TriNKET®; 10F10-IGHV3-21*05 BM1
For B1, in experiment [1], the EC50 is 10.1 nM and the “Max Fold Over Background (FOB)” value stood at 71.6 fold over background.

B2: AB1893-TriNKET® (bispecific antibody, human IgG1, kappa)
chain: DIQLTQSPSSLSASVGDRVTITCRASQGVSTSTYTYMHWFQQKPGKAPKLLIKFASNLESGVPSRFSGSGSGTDFTLTISSLQPEDFATYYCQHSWEIPWTFGCGTKVEIKGGGGSGGGGSGGGGSGGGGSEVQLLESGGGLVQPGGSLRLSCAASGFTFSDYGMHWVRQAPGKCLEWLAYISSGSSTFYYADTVKGRFTISRDNAKNTLYLQMNSLRAEDTAVYYCGSSQSYYRGTMDYWGQGTTVTVSSGSDKTHTCPPCPAPELLGGPSVFLFPPKPKDTLMISRTPEVTCVVVDVSHEDPEVKFNWYVDGVEVHNAKTKPREEQYNSTYRVVSVLTVLHQDWLNGKEYKCKVSNKALPAPIEKTISKAKGQPREPRVYTLPPCRDELTKNQVSLTCLVKGFYPSDIAVEWESNGQPENNYKTTPPVLVSDGSFTLYSKLTVDKSRWQQGNVFSCSVMHEALHNHYTQKSLSLSPG
heavy: EVQLVESGGGLVKPGGSLRLSCAASGFTFSSYSMNWVRQAPGKGLEWVSSISSSSSYIYYADSVKGRFTISRDNAKNSLYLQMNSLRAEDTAVYYCARGAPIGAAAGWFDPWGQGTLVTVSSASTKGPSVFPLAPSSKSTSGGTAALGCLVKDYFPEPVTVSWNSGALTSGVHTFPAVLQSSGLYSLSSVVTVPSSSLGTQTYICNVNHKPSNTKVDKKVEPKSCDKTHTCPPCPAPELLGGPSVFLFPPKPKDTLMISRTPEVTCVVVDVSHEDPEVKFNWYVDGVEVHNAKTKPREEQYNSTYRVVSVLTVLHQDWLNGKEYKCKVSNKALPAPIEKTISKAKGQPREPQVCTLPPSRDELTENQVSLTCLVKGFYPSDIAVEWESNGQPENNYKTTPPVLDSDGSFFLYSWLTVDKSRWQQGNVFSCSVMHEALHNHYTQKSLSLSPG
light: DIQMTQSPSSVSASVGDRVTITCRASQGISSWLAWYQQKPGKAPKLLIYAASSLQSGVPSRFSGSGSGTDFTLTISSLQPEDFATYYCQQGVSFPRTFGGGTKVEIKRTVAAPSVFIFPPSDEQLKSGTASVVCLLNNFYPREAKVQWKVDNALQSGNSQESVTEQDSKDSTYSLSSTLTLSKADYEKHKVYACEVTHQGLSSPVTKSFNRGEC
notes: F3′ format; also called AB1893-VL-VH TriNKET®; 11F09-IGHV3-23*03 BM2-YB
B2: in experiment [2], the EC50 was found to be 15.9 nM and the “Max Fold Over Background (FOB)” value was 70.8 fold over background.

B3: AB1890-TriNKET® (bispecific antibody, human IgG1, kappa)
chain: DIQLTQSPSSLSASVGDRVTITCRASQGVSTSTYTYMHWFQQKPGKAPKLLIKFASNLESGVPSRFSGSGSGTDFTLTISSLQPEDFATYYCQHSWEIPWTFGCGTKVEIKGGGGSGGGGSGGGGSGGGGSEVQLLESGGGLVQPGGSLRLSCAASGFTFSDYGMHWVRQAPGKCLEWVSYISSGSSTFYYADTVKGRFTISRDNSKNTLYLQMNSLRAEDTAVYYCGSSQSYYRGTMDYWGQGTTVTVSSGSDKTHTCPPCPAPELLGGPSVFLFPPKPKDTLMISRTPEVTCVVVDVSHEDPEVKFNWYVDGVEVHNAKTKPREEQYNSTYRVVSVLTVLHQDWLNGKEYKCKVSNKALPAPIEKTISKAKGQPREPRVYTLPPCRDELTKNQVSLTCLVKGFYPSDIAVEWESNGQPENNYKTTPPVLVSDGSFTLYSKLTVDKSRWQQGNVFSCSVMHEALHNHYTQKSLSLSPG
heavy: EVQLVESGGGLVKPGGSLRLSCAASGFTFSSYSMNWVRQAPGKGLEWVSSISSSSSYIYYADSVKGRFTISRDNAKNSLYLQMNSLRAEDTAVYYCARGAPIGAAAGWFDPWGQGTLVTVSSASTKGPSVFPLAPSSKSTSGGTAALGCLVKDYFPEPVTVSWNSGALTSGVHTFPAVLQSSGLYSLSSVVTVPSSSLGTQTYICNVNHKPSNTKVDKKVEPKSCDKTHTCPPCPAPELLGGPSVFLFPPKPKDTLMISRTPEVTCVVVDVSHEDPEVKFNWYVDGVEVHNAKTKPREEQYNSTYRVVSVLTVLHQDWLNGKEYKCKVSNKALPAPIEKTISKAKGQPREPQVCTLPPSRDELTENQVSLTCLVKGFYPSDIAVEWESNGQPENNYKTTPPVLDSDGSFFLYSWLTVDKSRWQQGNVFSCSVMHEALHNHYTQKSLSLSPG
light: DIQMTQSPSSVSASVGDRVTITCRASQGISSWLAWYQQKPGKAPKLLIYAASSLQSGVPSRFSGSGSGTDFTLTISSLQPEDFATYYCQQGVSFPRTFGGGTKVEIKRTVAAPSVFIFPPSDEQLKSGTASVVCLLNNFYPREAKVQWKVDNALQSGNSQESVTEQDSKDSTYSLSSTLTLSKADYEKHKVYACEVTHQGLSSPVTKSFNRGEC
notes: F3′ format; also called AB1890-VL-VH TriNKET®; 11F09-IGHV3-23*03 BM1-YB
Take B3: in experiment [2], the EC50 is 5.62 nM and the “Max Fold Over Background (FOB)” value was determined as 65.9 fold over background.

B4: AB1891-TriNKET® (bispecific antibody, human IgG1, kappa)
chain: DIQLTQSPSSLSASVGDRVTITCRASQGVSTSTYTYMHWFQQKPGKAPKLLIKFASNLESGVPSRFSGSGSGTDFTLTISSLQPEDFATYYCQHSWEIPWTFGCGTKVEIKGGGGSGGGGSGGGGSGGGGSEVQLVESGGGLVKPGGSLRLSCAASGFTFSDYGMHWIRQAPGKCLEWVSYISSGSSTFYYADTVKGRFTISRDNAKNSLYLQMNSLRAEDTAVYYCGSSQSYYRGTMDYWGQGTTVTVSSGSDKTHTCPPCPAPELLGGPSVFLFPPKPKDTLMISRTPEVTCVVVDVSHEDPEVKFNWYVDGVEVHNAKTKPREEQYNSTYRVVSVLTVLHQDWLNGKEYKCKVSNKALPAPIEKTISKAKGQPREPRVYTLPPCRDELTKNQVSLTCLVKGFYPSDIAVEWESNGQPENNYKTTPPVLVSDGSFTLYSKLTVDKSRWQQGNVFSCSVMHEALHNHYTQKSLSLSPG
heavy: EVQLVESGGGLVKPGGSLRLSCAASGFTFSSYSMNWVRQAPGKGLEWVSSISSSSSYIYYADSVKGRFTISRDNAKNSLYLQMNSLRAEDTAVYYCARGAPIGAAAGWFDPWGQGTLVTVSSASTKGPSVFPLAPSSKSTSGGTAALGCLVKDYFPEPVTVSWNSGALTSGVHTFPAVLQSSGLYSLSSVVTVPSSSLGTQTYICNVNHKPSNTKVDKKVEPKSCDKTHTCPPCPAPELLGGPSVFLFPPKPKDTLMISRTPEVTCVVVDVSHEDPEVKFNWYVDGVEVHNAKTKPREEQYNSTYRVVSVLTVLHQDWLNGKEYKCKVSNKALPAPIEKTISKAKGQPREPQVCTLPPSRDELTENQVSLTCLVKGFYPSDIAVEWESNGQPENNYKTTPPVLDSDGSFFLYSWLTVDKSRWQQGNVFSCSVMHEALHNHYTQKSLSLSPG
light: DIQMTQSPSSVSASVGDRVTITCRASQGISSWLAWYQQKPGKAPKLLIYAASSLQSGVPSRFSGSGSGTDFTLTISSLQPEDFATYYCQQGVSFPRTFGGGTKVEIKRTVAAPSVFIFPPSDEQLKSGTASVVCLLNNFYPREAKVQWKVDNALQSGNSQESVTEQDSKDSTYSLSSTLTLSKADYEKHKVYACEVTHQGLSSPVTKSFNRGEC
notes: F3′ format; also called AB1891-VL-VH TriNKET®; 11F09-IGHV3-11*01 BM1-YB
On to B4, for which, in experiment [2], the EC50 came to 50.5 nM and the “Max Fold Over Background (FOB)” value turned out to be 40.1 fold over background.

B5: AB1881-TriNKET® (bispecific antibody, human IgG1, kappa)
chain: DIQLTQSPSSLSASVGDRVTITCRASQSVTTSNYNYMHWFQQKPGKAPKLLIKFASNLESGVPSRFSGSGSGTDFTLTISSLQPEDFATYYCQHSWEIPWTFGCGTKVEIKGGGGSGGGGSGGGGSGGGGSEVQLLESGGGLVQPGGSLRLSCAASRFTFSDFGMHWVRQAPGKCLEWIAYISSGSSTIYYADTVKGRFTISRDNAKNTLYLQMNSLRAEDTAVYYCASSQSYYRGTLDYWGQGTTVTVSSGSDKTHTCPPCPAPELLGGPSVFLFPPKPKDTLMISRTPEVTCVVVDVSHEDPEVKFNWYVDGVEVHNAKTKPREEQYNSTYRVVSVLTVLHQDWLNGKEYKCKVSNKALPAPIEKTISKAKGQPREPRVYTLPPCRDELTKNQVSLTCLVKGFYPSDIAVEWESNGQPENNYKTTPPVLVSDGSFTLYSKLTVDKSRWQQGNVFSCSVMHEALHNHYTQKSLSLSPG
heavy: EVQLVESGGGLVKPGGSLRLSCAASGFTFSSYSMNWVRQAPGKGLEWVSSISSSSSYIYYADSVKGRFTISRDNAKNSLYLQMNSLRAEDTAVYYCARGAPIGAAAGWFDPWGQGTLVTVSSASTKGPSVFPLAPSSKSTSGGTAALGCLVKDYFPEPVTVSWNSGALTSGVHTFPAVLQSSGLYSLSSVVTVPSSSLGTQTYICNVNHKPSNTKVDKKVEPKSCDKTHTCPPCPAPELLGGPSVFLFPPKPKDTLMISRTPEVTCVVVDVSHEDPEVKFNWYVDGVEVHNAKTKPREEQYNSTYRVVSVLTVLHQDWLNGKEYKCKVSNKALPAPIEKTISKAKGQPREPQVCTLPPSRDELTENQVSLTCLVKGFYPSDIAVEWESNGQPENNYKTTPPVLDSDGSFFLYSWLTVDKSRWQQGNVFSCSVMHEALHNHYTQKSLSLSPG
light: DIQMTQSPSSVSASVGDRVTITCRASQGISSWLAWYQQKPGKAPKLLIYAASSLQSGVPSRFSGSGSGTDFTLTISSLQPEDFATYYCQQGVSFPRTFGGGTKVEIKRTVAAPSVFIFPPSDEQLKSGTASVVCLLNNFYPREAKVQWKVDNALQSGNSQESVTEQDSKDSTYSLSSTLTLSKADYEKHKVYACEVTHQGLSSPVTKSFNRGEC
notes: F3′ format; also called AB1881-VL-VH TriNKET®; 10F10-IGHV3-23*03 BM2
Take B5: in experiment [1], the EC50 amounted to 7.28 nM and the “Max Fold Over Background (FOB)” value was 72.5 fold over background.

As usually defined, the EC50 is the concentration that produces a half-maximal response. Read a low EC50 as a more potent agent.
